In the Human Domainome abundance scans (Beltran et al. 2025):

B1: Far upstream element-binding protein 1, residues 184 to 257; numbered along this chain, Q96AE4 (parent)
chain: GNAVQEIMIPASKAGLVIGKGGETIKQLQERAGVKMVMIQDGPQNTGADKPLRITGDPYKVQQAKEMVLELIRD

Variants of: B1
Assay: abundance fitness (aPCA) (normalised: wild type 0, dead -1); higher = more abundant; growth selection in yeast, the domain comes from the species named
Conditions: Homo sapiens

Abundance fitness: each site, then its substitutions
V37: P -0.773 | Q -0.025 | T -0.026 | K 0.039 | A -0.054 | G -0.172 | W -0.059 | M -0.07
G21: N 0.05 | S -0.033 | K 0.015 | L -0.1 | T -0.05 | E -0.059 | M -0.033 | P -0.493 | D -0.024 | Q -0.028 | V -0.219 | F -0.05 | H -0.015 | C -0.076 | I -0.278 | R 0.003
G22: F -0.145 | P -0.328 | R -0.116 | V -0.261 | M -0.115 | Q -0.075 | E -0.056 | L -0.157 | Y -0.237 | T -0.29 | A 0.003 | H -0.127 | K -0.14 | S -0.114 | I -0.417 | C -0.106
Q27: G -0.013 | W -0.05 | T -0.081 | K 0.032 | C -0.08 | L -0.083 | H -0.008 | A -0.05 | V -0.095 | I -0.019 | M -0.008 | D -0.005 | E -0.001 | Y -0.129 | R -0.011 | S -0.021 | N -0.012
I39: K 0 | T -0.088 | E -0.001 | F 0.035 | L -0.008 | Y -0.08 | D -0.105 | W -0.096 | C -0.051 | M 0.014 | S -0.02 | V 0.006 | Q -0.032 | P -0.061 | R 0.006 | H -0.095 | N 0.014 | G -0.028
I25: E -0.638 | A -0.32 | P -0.64 | M 0.03 | L 0.002 | D -0.359 | S -0.387 | C -0.267 | F -0.158 | Y -0.332 | R -0.316 | V -0.125 | G -0.624 | H -0.324 | K -0.371 | T -0.361
G33: N -0.063 | C -0.125 | W -0.807 | V -0.596 | M -0.137 | L -0.354 | H -0.1 | P -0.801 | D -0.083 | F -0.43 | I -1.12 | S -0.123 | E -0.081 | Y -0.534 | R -0.119 | Q -0.057 | T -0.29 | A -0.171 | K -0.097
A32: N 0.029 | C 0.006 | Y -0.016 | K -0.171 | F 0.054 | E -0.201 | W -0.057 | P -0.706 | T 0.02 | L -0.017 | R -0.367 | D -0.412 | V -0.062 | Q -0.077 | H 0.031 | I -0.034 | M -0.009 | G -0.075 | S -0.013
M36: Y -0.786 | C -0.239 | W -1 | D -0.709 | S -0.556 | A -0.194 | E -0.582 | V -0.231 | G -0.67 | K -0.78 | P -0.789 | I -0.053 | Q -0.656 | N -0.712 | R -0.747 | H -0.81 | T -0.585
K20: W -0.166 | V -0.031 | Y -0.023
L28: E -0.63 | P -0.77 | I -0.026 | C -0.399 | Y -0.338 | G -0.825 | A -0.467 | N -0.415 | W -0.284 | Q -0.612 | S -0.639 | T -0.315 | D -0.692 | M 0.026 | V -0.155 | K -0.791 | F -0.225 | R -0.78
